How the values were obtained:
[1] = target: human B7-H3 (CD276), on cells (human) (UniProt Q5ZPR3); experiment: parallel-plate flow chamber attachment of microbubbles to MS1 B7-H3+ cells under shear
[2] = target: human B7-H3 (CD276), on cells (human) (UniProt Q5ZPR3); experiment: flow chamber attachment of microbubbles to MS1hB7-H3 cells under shear
[3] = target: mouse B7-H3, on cells (mouse) (UniProt Q8VE98); experiment: cell-based or functional assay
[4] = target: human B7-H3 (CD276), on cells (human) (UniProt Q5ZPR3); experiment: cell-based or functional assay
[5] = target: recombinant soluble human B7-H3 ectodomain protein (human) (UniProt Q5ZPR3); experiment: flow cytometry; antibody on streptavidin magnetic beads, 3 µM soluble B7-H3, detected with APC anti-B7-H3 antibody
[6] = target: recombinant soluble human B7-H3 ectodomain protein (human) (UniProt Q5ZPR3); experiment: flow cytometry; unconjugated streptavidin magnetic beads, 3 µM soluble B7-H3, detected with APC anti-B7-H3 antibody

Sequence of mouse B7-H3, on cells (mouse) (Q8VE98 29-316): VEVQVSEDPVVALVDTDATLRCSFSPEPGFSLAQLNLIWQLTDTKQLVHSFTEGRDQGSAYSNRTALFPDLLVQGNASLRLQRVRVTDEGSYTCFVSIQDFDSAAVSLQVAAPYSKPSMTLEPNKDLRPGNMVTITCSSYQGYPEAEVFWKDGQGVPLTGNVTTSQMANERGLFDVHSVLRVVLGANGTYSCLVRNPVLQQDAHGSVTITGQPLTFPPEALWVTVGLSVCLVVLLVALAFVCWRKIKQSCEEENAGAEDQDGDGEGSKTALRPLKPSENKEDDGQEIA
Sequence of human B7-H3 (CD276), on cells (human) (Q5ZPR3 29-534): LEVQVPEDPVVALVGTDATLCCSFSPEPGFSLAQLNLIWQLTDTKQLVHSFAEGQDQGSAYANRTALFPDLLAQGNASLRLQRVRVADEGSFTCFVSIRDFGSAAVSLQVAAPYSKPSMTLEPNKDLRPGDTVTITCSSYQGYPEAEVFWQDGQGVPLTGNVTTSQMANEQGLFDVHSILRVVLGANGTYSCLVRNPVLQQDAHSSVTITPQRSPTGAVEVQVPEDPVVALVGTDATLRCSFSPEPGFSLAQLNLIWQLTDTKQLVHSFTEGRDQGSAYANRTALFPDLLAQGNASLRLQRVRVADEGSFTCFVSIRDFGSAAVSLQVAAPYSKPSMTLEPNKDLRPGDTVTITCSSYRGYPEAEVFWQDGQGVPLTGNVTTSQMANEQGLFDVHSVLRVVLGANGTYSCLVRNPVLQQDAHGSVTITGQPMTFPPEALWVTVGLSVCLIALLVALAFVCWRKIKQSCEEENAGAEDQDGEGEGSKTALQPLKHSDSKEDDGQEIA

## MBNon-targeted (unconjugated streptavidin-coated microbubbles) (from UniProt P22629 37-163)
[1]
  microbubbles attached per cell: 0.5 MB/cell
[2]
  microbubbles attached per cell: 0.5 MB/cell

## biotinylated anti-B7-H3 antibody (eBiosciences, clone M3.2D7)
[3]
  US molecular imaging signal, mammary tumors of MMTV-PyMT transgenic mice: 7.2 a.u.
  in vivo ultrasound molecular imaging signal of tumors (transgenic mouse model): 4.82 a.u.
  targeted imaging signal in transgenic mice with breast tumors: 6.22 a.u.
[4]
  US molecular imaging signal, orthotopic MDA-MB-231 tumors co-implanted with MS1hB7-H3 cells: 8.2 a.u.
[5]
  % binding: 81%
[1]
  microbubbles attached per cell: 9.79 MB/cell
[2]
  microbubbles attached per cell: 9.8 MB/cell

## unconjugated streptavidin magnetic beads (from UniProt P22629 37-163)
[6]
  % binding: 1%
